From patent USRE50631E1, “ROR1 antibody immunoconjugates” (VelosBio Inc., priority 2017, dated 2025)

B1: D10: a lower affinity antibody that binds the same epitope as Ab1 (antibody, V domains shown)
VH: QVQLKESGPGLVAPSQTLSITCTVSGFSLTSYGVHWVRQPPGKGLEWLGVIWAGGFTNYNSALKSRLSISKDNSKSQVLLKMTSLQTDDTAMYYCARRGSSYSMDYWGQGTSVIVSS
VL: EIVLSQSPAITAASLGQKVTITCSASSNVSYIHWYQQRSGTSPRPWIYEISKLASGVPVRFSGSGSGTSYSLTISSMEAEDAAIYYCQQWNYPLITFGSGTKLEIQ
B2: ADC-S: D10 conjugated via MAL-VC-PAB to MMAE (conjugate)
VH: B1 VH
VL: B1 VL

Experiments:
[1] = target: T1, ROR1 on Jeko-1 cells (Homo sapiens, UniProt Q01973); assay: Binding to ROR1-positive Jeko-1 cells (flow cytometry receptor binding assay); details: 20 minutes on ice, PE secondary antibody
T1 construct: The Jeko-1 cell line, from mantle cell lymphoma, is a suspension cell line; host or cells: Jeko-1 (human mantle cell lymphoma)
Protocol: The binding to tumor cells by antibodies Ab1 and 4A5, as well as ADC constructs derived from those antibodies (ADC-A and ADC-T), was evaluated. First, the binding of Ab1 to two ROR1-positive human tumor cell lines representing different cancer types was tested. The Jeko-1 cell line, from mantle cell lymphoma, is a suspension cell line, while the MDA-MB-231 cell line, from triple negative breast cancer, is an adherent cell line. The cell lines have different levels of ROR1 expression, with Jeko-1 cells displaying about 13507 cell surface copies and the MDA-MB-231 cells displaying about 21015 cell surface copies. The Jeko-1 (ATCC Cat. No. CRL-3006) and MDA-MB-231 (ATCC Cat. No. […]) cell lines were purchased from the American Type Culture Collection and were maintained according to the ATCC recommendations.
Jeko-1 cells (FIG. 2A) or MDA-MB-231 cells (FIG. 2B) were incubated with 0, 1, 10, 100, or 1000 ng/mL of Ab1 for 20 minutes on ice. After washing off unbound antibody, the cells were incubated with secondary anti-human IgG antibody labeled with phycoerythrin (PE) for an additional 20 minutes. The amount of PE fluorescence was measured using the BDFACS Verse analyzer and FlowJo V10 software. The PE signal for the highest concentration was used as the maximal binding signal to calculate the % maximal binding. EC50 was calculated using GraphPad Prism 7. […]

[2] = system: Mino; assay: Cytotoxicity in vitro (CellTiter-Glo viability), Mino; type: cell-based, human; details: Mino (MCL), 72 hours
Protocol: Cells were cultured in log phase growth and distributed into 96-well plates. Each cell line was plated at a slightly different cell density, ranging from 5×10^3 to 50×10^4 cells/well. Cells in duplicate were incubated with 3-fold serial dilution of a particular immunoconjugate (10, 3.33, 1.11, 0.37, 0.12, 0.041, 0.014, and 0.0045 μM) for 72 hours at 37° C. and 5% CO2. After treatment, cells were incubated with an equal volume of CellTiter-Glo® reagent (Promega Inc.) for 15 minutes at room temperature and viability was determined by a luminometer. Curves and EC50 values were generated in GraphPad Prism using a sigmoidal dose response non-linear regression fit.
Cells were grown and distributed into 96-well plates as described in Example 5. Cells in duplicate were incubated with 3-fold serial dilution of a particular immunoconjugate (660, 220, 73.3, 24.4, 8.14, 2.71, 0.91, and 0.3 nM) for 72 hours at 37° C. and 5% CO2. In some experiments, cells were incubated with an immunoconjugate for 96 hours instead of 72 hours (values highlighted with “*”). After treatment, cell viability was determined as described in Example 5.

[3] = system: Jeko-1 MCL xenograft; assay: Jeko-1 human MCL xenograft model (study 7); type: in vivo, mouse; details: 1 mg/kg ADC-N, ADC-P, ADC-R; 5 mg/kg ADC-A, ADC-L, ADC-M, ADC-S, ADC-T; IV Q4D
Protocol: Jeko-1 (MCL) cells were engrafted subcutaneously into mice. When tumor size reached 100 mm^3, the mice were randomized into nine groups, 9 mice/group. The groups were vehicle control; 1 mg/kg ADC-N, ADC-P or ADC-R; or 5 mg/kg ADC-A, ADC-L, ADC-M, ADC-S, or ADC-T. The mice were dosed IV q4d.

T1 sequence (Q01973 30-937): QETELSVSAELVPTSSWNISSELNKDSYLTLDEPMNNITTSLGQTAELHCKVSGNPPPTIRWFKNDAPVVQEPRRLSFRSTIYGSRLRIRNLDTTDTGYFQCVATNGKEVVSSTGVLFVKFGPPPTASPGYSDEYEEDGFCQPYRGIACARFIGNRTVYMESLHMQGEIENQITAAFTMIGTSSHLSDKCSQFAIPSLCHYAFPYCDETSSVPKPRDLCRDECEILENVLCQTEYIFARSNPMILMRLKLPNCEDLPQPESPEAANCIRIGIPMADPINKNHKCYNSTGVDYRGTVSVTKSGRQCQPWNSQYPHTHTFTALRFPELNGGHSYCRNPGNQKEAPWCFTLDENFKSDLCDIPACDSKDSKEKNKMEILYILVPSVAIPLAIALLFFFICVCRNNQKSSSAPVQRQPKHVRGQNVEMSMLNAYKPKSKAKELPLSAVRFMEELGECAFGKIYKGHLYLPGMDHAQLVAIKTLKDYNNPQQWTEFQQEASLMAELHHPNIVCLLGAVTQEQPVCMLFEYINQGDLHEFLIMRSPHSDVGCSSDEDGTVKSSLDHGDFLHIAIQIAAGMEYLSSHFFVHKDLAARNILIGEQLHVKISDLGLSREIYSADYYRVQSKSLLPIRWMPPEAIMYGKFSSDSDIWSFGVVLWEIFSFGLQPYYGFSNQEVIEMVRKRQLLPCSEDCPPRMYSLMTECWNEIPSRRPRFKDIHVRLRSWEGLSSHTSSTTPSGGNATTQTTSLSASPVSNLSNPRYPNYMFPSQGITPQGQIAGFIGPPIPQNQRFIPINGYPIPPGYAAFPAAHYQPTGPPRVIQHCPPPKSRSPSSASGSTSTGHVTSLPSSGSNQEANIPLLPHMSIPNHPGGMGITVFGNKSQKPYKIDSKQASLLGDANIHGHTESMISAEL

Row | Molecule | EC50 of binding to cells [1] [µg/mL] | EC50 [2] [nM] | tumor growth / average tumor size (interim results, day 14) [3]
1 | B1 | 0.25 | – | –
2 | B2 | 0.15 | 83.3 | Significant tumor regression
